Patent US20230144459A1 (published 2023)
Where no end group is shown, it is not given here.

Biological target: T1, BSA conjugated CD28 stalk region dimeric peptide (also: dimer, conjugated to BSA via C-terminal Lys)
T1 peptide: GKHLCPSPLFPGPSKPK
Assay: ELISA

IC50: 9 ng/mL
B1: antibody M9 (antibody, V domains shown)
VH: DVKLVESGGGLVKLGGSLKLSCVASGFTFSSYYMSWVRQTPEKRLEWVATISDGGDNTYYAGTVTGRFTISRDFAKNTLYLQMNSLTSEDTAVYYCARIHWPYYFDSWGQGTTLTVSS
VL: QFVLSQSPAILSASPGEMLTMTCRASSSVSYMNWYQQKPGSSPKPWIYATSDLASGVPARFSGSGSGTSYSLTISRVEAEDAATYYCQQWSSHPPTFGGGTKLEIR
